This assay has as its target GST-HA-ATG16L1(231–607) (UniProt Q676U5). Kind of assay: peptide microarray. The note with it: 800, 600, 400 nM; n = 9; read off a plot.
Turning to “TMEM59 peptide (residues 268–280), wild type (from UniProt Q9BXS4) I276del”, the percent of parent was 50 % WT.

On to “TMEM59 peptide (residues 268–280), wild type (from UniProt Q9BXS4) K273del”, for which the percent of parent is 15 % WT.

As to “TMEM59 peptide (residues 268–280), wild type (from UniProt Q9BXS4) K273del; I276del”, the percent of parent is 32 % WT.

Turning to “TMEM59 peptide (residues 268–280), wild type (from UniProt Q9BXS4) K273del; L274del”, the percent of parent was determined as 22 % WT.

On to “TMEM59 peptide (residues 268–280), wild type (from UniProt Q9BXS4) K273del; L274del; I276del”, for which the percent of parent was found to be 7 % WT.

Take “TMEM59 peptide (residues 268–280), wild type (from UniProt Q9BXS4) K273del; L274del; S275del”: the percent of parent was 120 % WT.

Consider “TMEM59 peptide (residues 268–280), wild type (from UniProt Q9BXS4) K273del; S275del”, for which the percent of parent was found to be 160 % WT.

With “TMEM59 peptide (residues 268–280), wild type (from UniProt Q9BXS4) L274del”, the percent of parent amounted to 22 % WT.

Take “TMEM59 peptide (residues 268–280), wild type (from UniProt Q9BXS4) L274del; I276del”: the percent of parent came out at 20 % WT.

As for “TMEM59 peptide (residues 268–280), wild type (from UniProt Q9BXS4) L274del; S275del”, the percent of parent is 120 % WT.

As to “TMEM59 peptide (residues 268–280), wild type (from UniProt Q9BXS4) L274del; S275del; I276del”, the percent of parent is 72 % WT.

Regarding “TMEM59 peptide (residues 268–280), wild type (from UniProt Q9BXS4) P270del”, the percent of parent is 160 % WT.

Take “TMEM59 peptide (residues 268–280), wild type (from UniProt Q9BXS4) P270del; S271del”: the percent of parent is 180 % WT.

For the substance “TMEM59 peptide (residues 268–280), wild type (from UniProt Q9BXS4) S271del”, the percent of parent amounted to 180 % WT.

As to “TMEM59 peptide (residues 268–280), wild type (from UniProt Q9BXS4) S275del”, the percent of parent was 100 % WT.

Turning to “TMEM59 peptide (residues 268–280), wild type (from UniProt Q9BXS4) S275del; I276del”, the percent of parent was 80 % WT.

On to “TMEM59 peptide (residues 268–280), wild type (from UniProt Q9BXS4) V269del”, for which the percent of parent came out at 20 % WT.

Turning to “TMEM59 peptide (residues 268–280), wild type (from UniProt Q9BXS4) V269del; P270del”, the percent of parent came out at 130 % WT.

“TMEM59 peptide (residues 268–280), wild type (from UniProt Q9BXS4) V269del; S271del”: the percent of parent came to 180 % WT.
